T1: human TIM-3 extracellular domain protein with hFc tag (hTIM-3-hFc) (human, UniProt Q8TDQ0 22-200)
T1 construct: not shown: human IgG Fc fragment (hFc) of the pCpC vector
T1 sequence: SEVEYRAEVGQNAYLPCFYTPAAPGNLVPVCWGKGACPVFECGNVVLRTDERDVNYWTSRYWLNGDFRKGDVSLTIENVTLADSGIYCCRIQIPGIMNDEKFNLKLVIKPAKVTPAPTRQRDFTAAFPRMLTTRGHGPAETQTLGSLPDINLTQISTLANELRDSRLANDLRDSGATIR

T2: human TIM-3, full length, on cells (human, UniProt Q8TDQ0 22-301)
T2 construct: Also used here for native TIM-3 on PBMC in the functional rows; also called CHOK1-hTIM-3; HEK293-h TIM-3
T2 sequence: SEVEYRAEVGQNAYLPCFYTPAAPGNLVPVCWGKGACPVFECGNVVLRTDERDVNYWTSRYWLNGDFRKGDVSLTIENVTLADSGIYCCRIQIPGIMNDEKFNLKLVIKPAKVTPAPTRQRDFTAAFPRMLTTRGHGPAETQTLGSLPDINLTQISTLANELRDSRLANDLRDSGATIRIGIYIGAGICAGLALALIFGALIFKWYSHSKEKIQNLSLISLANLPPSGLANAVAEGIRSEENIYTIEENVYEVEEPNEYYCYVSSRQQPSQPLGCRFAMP

B1: 215A8F2 fully human TIM-3 antibody (human IgG4, kappa) (antibody, V domains shown)
VH: QVQLQQWGAGLLKPSETLSLTCTVYGGSFSGYYWNWIRQPPGKGLEWLGEINHSGSTNYNPSLKRRVTISVDTSKNQFSLKLSSVTAADTAVYYCARVYYYGPFDFWGQGTLVTVSS
VL: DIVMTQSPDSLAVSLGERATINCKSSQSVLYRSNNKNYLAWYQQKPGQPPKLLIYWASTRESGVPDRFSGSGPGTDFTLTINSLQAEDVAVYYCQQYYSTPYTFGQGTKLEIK
B2: 134H3G6 fully human TIM-3 antibody (human IgG4, kappa) (antibody, V domains shown)
VH: EVQLVESGGGLVQPGGSLRLSCAASGFTFSNSWMTWVRQAPGKGLEWVANIKQAGTEKYYVDSVKGRFTISRDNAKNSLYLQMNSLRAEDTAVYYCNSGSNYFDYWGQGTLVTVSS
VL: EIVMTQSPATLSVSPGERATLSCRARQNFYSNLAWYQQKPGQAPRLLIYGASTRATGIPARFSGSGSGTEFTLTISSLQSEDFAVYYCQQYNNWPLTFGGGTKVEIK
B3: 18D2H2 fully human TIM-3 antibody (human IgG4, kappa) (antibody, V domains shown)
VH: EVQLVESGGDLVQPGGSLRLSCAASGFTFSTYWMTWVRQAPGRGLEWVANIKQDGSAKYYVDSVKGRFTLSRDDAKNSLYLQMNSLRAEDTAVYYCARGSNWFDYWGQGTLVTVSS
VL: B2 VL with I2T, R26N, F29V, G50D, I58F
B4: 7A4F10 fully human TIM-3 antibody (human IgG4, kappa) (antibody, V domains shown)
VH: EVQLLESGGGLVQPGGSLRLSCAASGFTFRTHLISWVRQAPGKGLEWVAAITGSGGSTYYADSVKGRFIISRDNSKNTLFLQMNSLRAEDTAVYYCAKDGGSGSYDDFWGQGTLVTVSS
VL: ETVLTQSPVTLSLSPGERATLSCRASQSVGSYLAWYQQKPGQAPRLLIYDASNRATGIPARFSGSGSGTDFTLTISSLEPEDFAVYYCQQRSNWPPTFGQGTKVEIK
B5: 215A8F2 (TIM-3 antibody purified from hybridoma, chimeric antibody of Example 2) (antibody, V domains shown)
VH: B1 VH
VL: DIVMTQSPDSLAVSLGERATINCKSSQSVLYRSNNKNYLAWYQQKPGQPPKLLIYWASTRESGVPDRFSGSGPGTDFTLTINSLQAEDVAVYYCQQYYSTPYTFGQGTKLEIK
notes: From hybridoma of Harbour H2L2 transgenic mice: human variable regions, rat constant regions
B6: 57F4E5 (TIM-3 antibody purified from hybridoma, chimeric antibody of Example 2) (antibody, V domains shown)
VH: EVQLVESGGGLVQPGGSLRLSCAASGFTFSSYWMSWVRQAPGKGLEWVANIKQDGSEKYYVDSVKGRFTISRDSAKNSLYLQMNSLRAEDTAMYFCARDSNFFDYWGQGTLVTVSS
VL: B2 VL with I2T, R26S, N28S, F29V, Y30S, Q38R, G50F, A51S
notes: as for B5
B7: 134H3G6 (TIM-3 antibody purified from hybridoma, chimeric antibody of Example 2) (antibody, V domains shown)
VH: B2 VH
VL: B2 VL
notes: as for B5
B8: 18D2H2 (TIM-3 antibody purified from hybridoma, chimeric antibody of Example 2) (antibody, V domains shown)
VH: B3 VH
VL: B2 VL with I2T, R26N, F29V, G50D, I58F
notes: as for B5
B9: 7A4F10 (TIM-3 antibody purified from hybridoma, chimeric antibody of Example 2) (antibody, V domains shown)
VH: B4 VH
VL: B4 VL
notes: as for B5

Changes are numbered by the printed parent chain.

Nine molecules from patent publication US20220033501A1 (SHANGHAI PHARMAEXPLORER, published 2022) can be followed below.

For one experiment, the target named is T1, human TIM-3 extracellular domain …. The experiment is described as follows: FACS, blocking of hTIM-3-hFc binding to phosphatidylserine on apoptotic Jurkat cells, 0.274 nM antibody. The protocol:
(§1) Jurkat cells were treated with 1 μM staurosporine at 37° C. for 2 hours to induce apoptosis. The presence of phosphatidylserine was detected by Annexin V-FITC cell apoptosis detection kit. […] The cells were washed 1-2 times with PBS buffer, and after cell counting, the cells were diluted to 1-2×10⁶ cells per milliliter with binding buffer, and added to a 96-well FACS reaction plate at 100 microliters per well. The antibody sample to be tested and 2 μg/ml hTIM-3-hFc protein were prepared with binding buffer, and mixed equally in volume. The mixture was incubated at room temperature for 30 minutes, then the FACS reaction plate incubated with apoptotic cells was centrifuged to discard the supernatant, and the above mixture was added to the apoptotic cells at 100 microliters per well and incubated at room temperature for 1 hour. The plate was washed twice with the binding buffer by centrifugation, added with 100 microliters of fluorescent (Alexa 488)-labeled secondary antibodies per well, and incubated for half an hour. The plate was washed 2-3 times with the binding buffer by centrifugation, added with 100 microliters of PBS per well to suspend cells, and detected using FACS (FACS Calibur, BD) and the results were analyzed. The results are shown in Table 15 and FIG. 15, wherein the IgG control is human IgG, and the data in the table is the inhibition rate (%).
For B1, the “Inhibition ratio (%)” value was 0.3%.
B2: the “Inhibition ratio (%)” value amounted to 8%.
Same read-out and setting: next, B3: 5.4%; B4: 0.9%.

Another experiment shares this target. The experiment is described as follows: FACS, blocking of hTIM-3-hFc binding to phosphatidylserine on apoptotic Jurkat cells, 0.823 nM antibody. The protocol:
as §1
A general note: In flow cytometry, cells or beads pass a laser one at a time.
Consider B1, for which the “Inhibition ratio (%)” value was -4.4%.
Still for that read-out and setting: next, B2: 6.1%; B3: 3.9%; B4: 5.7%.

A further experiment has as its target T2, human TIM-3, full length, on cells. The experiment is described as follows: FACS, CHOK1-hTIM-3 cells; antibody 40 nM. An excerpt:
(§2) The pIRES plasmid containing the full-length nucleotide sequence encoding human TIM-3 as described in Example 1 was transfected into CHOK1 cell line to obtain a CHOK1 stable cell line containing human TIM-3 (herein referred to as CHOK1-hTIM-3 stable cell line). The pIRES plasmid containing the full-length gene of monkey TIM-3 was transfected into CHOK1 cell line to construct a CHOK1 stable cell line containing monkey TIM-3 (herein referred to as CHOK1-cTIM-3 stable cell line). The CHOK1-hTIM-3 stable cell line and CHOK1-cTIM-3 stable cell line were expanded to a confluence of 90% in a T-75 cell culture flask. The medium was aspirated, and the cells were washed with HBSS (Hanks' Balanced Salt Solution) 1-2 times, and then treated with an enzyme-free cell dissociation solution (Versene solution: Life technology) and the cells were collected. The cells were washed with HBSS buffer for 1-2 times. After counted, the cells were diluted with HBSS to 1-2×10⁶ cells per ml, added with 1% goat serum blocking solution, incubated on ice for 20-30 minutes, and then washed with HBSS by centrifugation 2 times. The collected cells were suspended in the FACS buffer (HBSS+1% BSA) to 2×10⁶ cells/ml, added as 100 microliters per well to a 96-well FACS reaction plate, added with 100 microliters per well of the antibody sample to be tested, incubated on ice for 1-2 hours. The plate was washed twice with the FACS buffer by centrifugation, added with 100 microliters of fluorescent (Alexa 488)-labeled secondary antibodies per well, and incubated on ice for 0.5-1.0 hours. The plate was washed 2-3 times with FACS buffer by centrifugation, added with 100 μl fixative solution (4% Paraformaldehyde) per well to suspend the cells. 5-10 minutes later, it was washed 1-2 times with FACS buffer by centrifugation. The cells were suspended with 100 microliters of FACS buffer, FACS (FACSCalibur, BD) was used for detection and the results were analyzed. The results are shown in FIGS. 7 and 8, Tables 7 and 8, wherein the IgG control is rat IgG, and the data in the table are the average fluorescence intensity values of the cell populations measured by MFI.
On to B5, for which the Mean fluorescence intensity worked out at 610.
Same read-out and setting: next, B6: 485.
Regarding B7, the Mean fluorescence intensity came out at 230.
As to B8, the Mean fluorescence intensity stood at 185.
Still for that read-out and setting: next, B9: 144.

The next experiment shares this target. Description: FACS, CHOK1-hTIM-3 cells; antibody 8 nM.
Description: as §2
Regarding B5, the Mean fluorescence intensity stood at 608.
The same measure, in the same setting: next, B6: 478; B7: 139; B8: 107.
Molecule B9 gave a Mean fluorescence intensity of 56.2.

Another experiment concerns the target T1, human TIM-3 extracellular domain …. The experiment is described as follows: FACS, blocking of hTIM-3-hFc binding to phosphatidylserine on apoptotic Jurkat cells, 200 nM antibody. The procedure: as §1
As to B1, the “Inhibition ratio (%)” value was 52.1%.
In the case of B2, the “Inhibition ratio (%)” value was determined as 37.6%.
For B3, the “Inhibition ratio (%)” value was determined as 56.1%.
As for B4, the “Inhibition ratio (%)” value came to 56.9%.

The next experiment addresses T2, human TIM-3, full length, on cells. The experiment is described as follows: FACS, CHOK1-hTIM-3 cells; antibody 0.064 nM.
Description: as §2
Turning to B5, the Mean fluorescence intensity is 18.7.
The same measure, in the same setting: next, B6: 58.1; B7: 8.2.
Still for that read-out and setting: next, B8: 6.6.
B9 gave a Mean fluorescence intensity of 4.3.
